According to the supplement of paper PMC10567573:
± gives the standard deviation.

Test: protein stability index of a GFP-peptide fusion (GPS, HEK-293T) (PSI 1-6); higher = more stable
[1] = treatment: DMSO, c terminus: a fixed tail appended
[2] = treatment: MLN4924 1 uM, 8 h, c terminus: a fixed tail appended
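Note: 24-mer peptide tiles fused after GFP, lentivirally expressed, FACS-sorted into six equal bins by GFP/DsRed ratio, decoded by Illumina sequencing, PSI is the read-weighted mean bin number.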

Sequence	protein stability index [1]	protein stability index [2]	protein stability index (treatment: DMSO, c terminus: native)	protein stability index (treatment: MLN4924 1 uM, 8 h, c terminus: native)
PCSGSVSLQPRRSIAFRLRLASFD [GMCL1]	2.58 ± 0.39	2.24 ± 0.27	–	–
AKKEDKVPVKKQKTRTVFSSTQLC [NANOGP8]	4.2 ± 0.1	4.19 ± 0.12	–	–
TKCRKRKLERIARLEDKVKTLKAE [JUNB]	4.28 ± 0.23	4.42 ± 0.29	–	–
LTCVICLNYLVDPVTICCGHSFCR [TRIM43]	2.83 ± 0.82	2.91 ± 0.97	–	–
CLMLLMGTVHCQIVSTQITRPSGN [PHTF1]	3.12 ± 0.47	2.84 ± 0.47	–	–
KIRRFNKAKPEPDILEEEKIYAYP [TMEM192]	3.27 ± 0.35	3.54 ± 0.52	–	–
LCSSPLEAETPPNGPDCGYGSFHQ [ATE1]	4.28 ± 0.18	4.24 ± 0.079	–	–
RKGELVTASKAIIEKEYQPHVIVS [ADD1]	3.62 ± 0.18	3.97 ± 0.21	–	–
NDTKKMYAMKYMNKQKCVERNEVR [STK32A]	3.71 ± 0.2	3.97 ± 0.33	–	–
REEQQLLASTSKPVVKLLHNRSNN [KCTD13]	4.75 ± 0.23	4.89 ± 0.14	–	–
QWLKDKILSEEGRRQQAKLKELQA [KCNAB2]	3.13 ± 0.56	3.32 ± 0.13	–	–
DWGPCSGSCGQGRTIRHVYCKTSD [ADAMTSL2]	3.43 ± 0.25	3.44 ± 0.33	–	–
SWNSQSSLLDVQRVPSFESFEDDC [ETS2]	4.84 ± 0.17	4.67 ± 0.13	–	–
YRQKLLMFLEISSYYDPGRLICDF [VPS39]	2.92 ± 0.55	2.7 ± 0.56	–	–
NAFQETWYWHGDVNSNKVVMSGVK [LOXL2]	2.75 ± 0.31	2.84 ± 0.48	–	–
HPLAQNERCLHMFLQEEAIDRNYV [SNX12]	3.17 ± 0.4	3.18 ± 0.28	–	–
RFQLLYVACGMVHLLIPELGACVA [DNAAF3]	2.97 ± 0.17	3.39 ± 0.44	–	–
FLVVLKTVLENEDDMLLFDEQEKG [FAN1]	2.34 ± 0.23	2.28 ± 0.26	–	–
LFYFFLYQYCSIHCSDRKQVRNIA [CSTF3]	2.92 ± 0.83	2.61 ± 0.33	–	–
RERIERVRRIHIKRPDDRAHLHQ [KCTD10]	–	–	4.2 ± 0.36	4.51 ± 0.35
DLNKDKPVIPAAALAGYTGSGPIQ [ETS1]	4.2 ± 0.13	4.14 ± 0.25	–	–
DYFERNWEPRRDMWVRFRAFEAAR [ZSWIM9]	2.56 ± 0.12	2.66 ± 0.32	–	–

Sequence	protein stability index [1]	protein stability index [2]	protein stability index (treatment: DMSO, c terminus: native)	protein stability index (treatment: MLN4924 1 uM, 8 h, c terminus: native)
VAVLKGEQEKEAQHKDQTAALPLA [MAP2]	5.28 ± 0.17	5.09 ± 0.27	–	–
MPHARTETSVGTYESHSTSELEDL [TPD52L3]	5.43 ± 0.18	5.37 ± 0.3	–	–
PGRGHTHAAQGGPLLCPGCQGQPQ [ELOA2]	4.38 ± 0.26	4.47 ± 0.14	–	–
GTFCSLDICLAQLEELGTLNVFQT [PTPN9]	2.93 ± 0.92	2.24 ± 0.46	–	–
LPIFTPAKMGATKEEREDTPIQLQ [TCAP]	4.7 ± 0.089	4.72 ± 0.088	–	–
SQVRALDRFQVPTTEVNAWLVHRD [NFE2L1]	3.37 ± 0.47	3.33 ± 0.48	–	–
ALSSPRSRKNATQPPNAEEESGSS [INTS3]	5.24 ± 0.31	5.38 ± 0.24	–	–
MTVKQYEAARLEYDAYRTDLEELS [ARFIP2]	3.84 ± 0.19	3.97 ± 0.21	–	–
IELEGISVMVMREILDYIFSGQIR [GAN]	3.37 ± 0.23	2.86 ± 0.49	–	–
EIFVDCDINREQLNDIFHLLKSHT [TPH1]	2.19 ± 0.3	2.19 ± 0.35	–	–
VPEEEQAANKGEEKKDDENIPMET [SMARCE1]	5.63 ± 0.19	5.68 ± 0.27	–	–
ILVMKHNYSQDAADACDIDEIEEV [NETO1]	4.11 ± 0.16	4.18 ± 0.28	–	–
KEIDDVIDEIISLESSYNDEMLSY [TFE3]	3.27 ± 0.26	3.5 ± 0.3	–	–
VKRKMDGREYPDAQGFAADVRLMF [BRD3]	2.44 ± 0.043	2.58 ± 0.18	–	–
MEIMEAYSVARQFNLTPPICEQAE [KCNAB2]	3.72 ± 0.18	3.65 ± 0.33	–	–
VVPPTPPVVKKKGVKRKADTTTPT [BRD3]	4.9 ± 0.39	4.82 ± 0.31	–	–
KEDNSLLNQGFLQAKPEKAAVAQK [MYBL2]	5.26 ± 0.12	5.14 ± 0.56	–	–
RFQDGDNILEKEVLPPIHAYGNRT [FEM1B]	3.96 ± 0.14	4.001 ± 0.01	–	–
LELGSTEVLLDHLKAHAEEKPPSG [PLAGL1]	4.46 ± 0.28	4.94 ± 0.2	–	–
LSKASEPKYQLFVPQLVTGRCATR [RNF180]	2.88 ± 0.4	2.94 ± 0.2	–	–
IMNIIDIVSILPYFITLGTDLAQQ [KCNA4]	3.37 ± 0.44	2.95 ± 0.49	–	–
WVEQAYADKCVCGPSAPPAPTPPS [TIAF1]	3.9 ± 0.17	3.9 ± 0.3	–	–

Sequence	protein stability index [1]	protein stability index [2]	protein stability index (treatment: DMSO, c terminus: native)	protein stability index (treatment: MLN4924 1 uM, 8 h, c terminus: native)
LSSSCCHTVPDFHLSSPAKNFFKK [PLK2]	2.99 ± 0.18	3.25 ± 0.31	–	–
FVDFFVRLFTQLKFGVVQTSVEEC [CLCN6]	3.59 ± 0.27	3.07 ± 0.68	–	–
SGRSGHNTRGTGSSSSGVLMVGPN [CSNK1G3]	4.13 ± 0.24	4.18 ± 0.16	–	–
TRWCHIVRDSDSLAESEFESAAFS [PHTF1]	3.45 ± 0.054	3.33 ± 0.29	–	–
KVTLRIRNVRFSDEGGFTCFFRDH [MOG]	2.29 ± 0.5	2.21 ± 0.14	–	–
AVVASSVNSYYSSPAQQVPKNPAL [TOR1AIP2]	3.51 ± 0.16	3.46 ± 0.18	–	–
WGPSGQLMGEIAKATFMYEQFPEL [CLINT1]	1.97 ± 0.38	2.06 ± 0.23	–	–
HYFHSISYKIEEISPSTLKNSLFP [KCNK9]	2.17 ± 0.28	2.18 ± 0.18	–	–
PPKVKAEDGMQCLQLKETLATQEP [DLC1]	5.3 ± 0.17	5.16 ± 0.2	–	–
TCFVRDGKTYCKRDYVRLFGIKCA [ISL2]	2.46 ± 0.18	2.17 ± 0.19	–	–
SLLRPLNSLAALDLSGIQTSDAAF [ZER1]	2.87 ± 0.15	2.9 ± 0.24	–	–
TVVSVRGFEESEPLTGFLTTVPDG [TNXB]	3.92 ± 0.25	3.78 ± 0.41	–	–
KLDKKLKKMEQNKTAATRYRQKKR [ATF4]	4.48 ± 0.16	4.42 ± 0.23	–	–
VADIDGQYAMTRAQRVRAAMFPET [CTNNB1]	3.65 ± 0.25	3.6 ± 0.24	–	–
ERQDMYQCLVEGCTEKFKTSRDRK [ZNF511]	4.09 ± 0.48	4.29 ± 0.25	–	–
CNECAKLIIQAGIKEVIFMSDKYH [DCTD]	2.01 ± 0.81	2.43 ± 0.41	–	–
HCPDCGQQWFPSLELGHWLYQTEL [TOR1AIP2]	2.31 ± 0.57	2.52 ± 0.41	–	–
PPPPRSRGPPRGLRGGRGGSGGTR [RBMX]	5.11 ± 0.5	4.96 ± 0.32	–	–
LERKFRCQQEQLFQTRQEMTSMSA [LRRC45]	3.22 ± 0.29	3.21 ± 0.24	–	–
LQVRGYPEEKKEEEGSANRRPEDQ [CHGA]	5.61 ± 0.21	5.7 ± 0.25	–	–
CNECGKAFRWGAHLVQHQRIHSGE [ZNF232]	4.44 ± 0.56	4.53 ± 0.26	–	–
